From US20130303449A1 (University of California, published 2013)
Positions of bridges follow the written chain, without caps; N, C: chain ends. No end group written: not given here.

How the values were obtained:
recombinant human BMP-2 [1] = biological target: T1, recombinant human BMP-2 (human, UniProt P12643 283-396); assay: cell-based or functional assay
recombinant human BMP-2 [2] = biological target: T1, recombinant human BMP-2; assay: SPR (Biacore X), rhBMP-2 on CM-5 chip, peptide at 1×10^-5 to 1×10^-4 M in solution
Experimental: Buffers and chips for the procedure were obtained from Biacore. […] This material was then attached to a CM-5 sensor chip using reagents and procedures supplied by the manufacturer. Running buffer was 10 mM HEPES, pH 7.4, 150 mM NaCl, 3 mM EDTA, 0.005% Surfactant P20. The peptide was dissolved in running buffer at concentrations ranging from 1×10⁻⁵ to 1×10⁻⁴ M. Flow rates from 5 to 50 μl/min and injection volumes of 20 to 100 μl were employed. The regeneration solution was […] glycine-HCl, pH 2.0.

T1 sequence (P12643 283-396 limits assumed): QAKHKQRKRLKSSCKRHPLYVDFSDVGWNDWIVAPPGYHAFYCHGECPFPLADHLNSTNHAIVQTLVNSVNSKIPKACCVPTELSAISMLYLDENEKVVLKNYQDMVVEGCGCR

B1: cyclized BMP Binding Peptide (BBP), bovine (peptide)
peptide: CRSTVRMSAEQVQNVWVRC
modifications: disulfide 1-19 (inferred)
notes: Synthetic 19 amino acid cyclic peptide, 2.1 kD; Reduction with β-mercaptoethanol decyclizes it, which implies a disulfide; also called cyclized BBP
Question: How did the “retention of labeled rhBMP-2 on collagen sponges implanted in rodent muscle pouches (1, 3 and 7 days)” value (recombinant human BMP-2 [1]) turn out when B1 was run?
Answer: ~2 fold

Question: And the Kd (recombinant human BMP-2 [2])?
Answer: 30 µM
